Values quoted from earlier work in article PMC4113456, “Atypical Signaling and Functional Desensitization Response of MAS Receptor to Peptide Ligands” (PLoS ONE, 2014).

Biological target: T1, MAS (Homo sapiens, UniProt P04201)
T1 construct: expressed in transfected cells
T1 sequence (P04201 1-325): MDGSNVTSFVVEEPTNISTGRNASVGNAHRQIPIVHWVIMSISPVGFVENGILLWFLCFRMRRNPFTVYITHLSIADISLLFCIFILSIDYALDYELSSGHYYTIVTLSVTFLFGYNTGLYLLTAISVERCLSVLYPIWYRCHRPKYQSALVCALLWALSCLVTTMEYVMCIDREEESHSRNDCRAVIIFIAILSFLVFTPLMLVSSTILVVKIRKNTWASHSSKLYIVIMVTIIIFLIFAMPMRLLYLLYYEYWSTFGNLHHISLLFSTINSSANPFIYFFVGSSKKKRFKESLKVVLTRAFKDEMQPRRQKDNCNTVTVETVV
Design: method as in ref [4] (a number printed in a supplementary file, which may have a reference list of its own: not looked up in the article's list)
Details: ref [4]; cited from earlier work

Angioprotectin: physiological ligand, sequence PEVYIHPF
Effect in aortic rings: Vasodilator effect in aortic rings
